Data as given in paper doi:10.1101/219642 (bioRxiv, 2017).

Assays:
[1] = target: Purified bovine ubiquitin (bovine, UniProt P0CG53 1-76); assay: SPR
[2] = target: ubiquitin on ubiquitin-coated agarose beads (UniProt P0CG47 1-76, coupled to agarose beads); assay: pull-down

Binder	Kd [1]	binding result [2]
GST fusion protein containing only the Habc domain (1-146) of Stx3 (domain or fragment) MKDRLEQLKAKQLTQDDDTDEVEIAIDNTAFMDEFFSEIEETRLNIDKISEHVEEAKKLYSIILSAPIPEPKTKDDLEQLTTEIKKRANNVRNKLKSMEKHIEEDEVRSSADLRIRKSQHSVLSRKFVEVMTKYNEAQVDFRERSK	1.36 mM	binds
GST fusion protein of the constitutively open mutant of the cytoplasmic region of Stx3 (L165A/E166A) (domain or fragment) MKDRLEQLKAKQLTQDDDTDEVEIAIDNTAFMDEFFSEIEETRLNIDKISEHVEEAKKLYSIILSAPIPEPKTKDDLEQLTTEIKKRANNVRNKLKSMEKHIEEDEVRSSADLRIRKSQHSVLSRKFVEVMTKYNEAQVDFRERSKGRIQRQLEITGKKTTDEEAAEMLESGNPAIFTSGIIDSQISKQALSEIEGRHKDIVRLESSIKELHDMFMDIAMLVENQGEMLDNIELNVMHTVDHVEKARDETKRAMKYQGQARKKLI	–	binds
